From paper PMC10167749 come the findings set out here.

This assay deals with recombinant scavenger receptor cysteine-rich domain 1 of Gp340 (salivary agglutinin), expressed in insect cells (UniProt Q9UGM3). Put plainly: SPR; Biacore T200; iSRCR1 immobilised on a CM5 chip by amine coupling; analyte GtfB-CD 2-8 uM in 20 mM HEPES pH 7.4, 150 mM NaCl, 1 mM CaCl2, 20 ul/min; each concentration in triplicate; kinetic fit with Biacore Insight Evaluation software. Background: In SPR one partner is held on a chip, and binding of the other changes the refractive index at the surface.
recombinant scavenger receptor cysteine-rich domain 1 of Gp340 (salivary agglutinin), expressed in insect cells, sequence (Q9UGM3 20-2413): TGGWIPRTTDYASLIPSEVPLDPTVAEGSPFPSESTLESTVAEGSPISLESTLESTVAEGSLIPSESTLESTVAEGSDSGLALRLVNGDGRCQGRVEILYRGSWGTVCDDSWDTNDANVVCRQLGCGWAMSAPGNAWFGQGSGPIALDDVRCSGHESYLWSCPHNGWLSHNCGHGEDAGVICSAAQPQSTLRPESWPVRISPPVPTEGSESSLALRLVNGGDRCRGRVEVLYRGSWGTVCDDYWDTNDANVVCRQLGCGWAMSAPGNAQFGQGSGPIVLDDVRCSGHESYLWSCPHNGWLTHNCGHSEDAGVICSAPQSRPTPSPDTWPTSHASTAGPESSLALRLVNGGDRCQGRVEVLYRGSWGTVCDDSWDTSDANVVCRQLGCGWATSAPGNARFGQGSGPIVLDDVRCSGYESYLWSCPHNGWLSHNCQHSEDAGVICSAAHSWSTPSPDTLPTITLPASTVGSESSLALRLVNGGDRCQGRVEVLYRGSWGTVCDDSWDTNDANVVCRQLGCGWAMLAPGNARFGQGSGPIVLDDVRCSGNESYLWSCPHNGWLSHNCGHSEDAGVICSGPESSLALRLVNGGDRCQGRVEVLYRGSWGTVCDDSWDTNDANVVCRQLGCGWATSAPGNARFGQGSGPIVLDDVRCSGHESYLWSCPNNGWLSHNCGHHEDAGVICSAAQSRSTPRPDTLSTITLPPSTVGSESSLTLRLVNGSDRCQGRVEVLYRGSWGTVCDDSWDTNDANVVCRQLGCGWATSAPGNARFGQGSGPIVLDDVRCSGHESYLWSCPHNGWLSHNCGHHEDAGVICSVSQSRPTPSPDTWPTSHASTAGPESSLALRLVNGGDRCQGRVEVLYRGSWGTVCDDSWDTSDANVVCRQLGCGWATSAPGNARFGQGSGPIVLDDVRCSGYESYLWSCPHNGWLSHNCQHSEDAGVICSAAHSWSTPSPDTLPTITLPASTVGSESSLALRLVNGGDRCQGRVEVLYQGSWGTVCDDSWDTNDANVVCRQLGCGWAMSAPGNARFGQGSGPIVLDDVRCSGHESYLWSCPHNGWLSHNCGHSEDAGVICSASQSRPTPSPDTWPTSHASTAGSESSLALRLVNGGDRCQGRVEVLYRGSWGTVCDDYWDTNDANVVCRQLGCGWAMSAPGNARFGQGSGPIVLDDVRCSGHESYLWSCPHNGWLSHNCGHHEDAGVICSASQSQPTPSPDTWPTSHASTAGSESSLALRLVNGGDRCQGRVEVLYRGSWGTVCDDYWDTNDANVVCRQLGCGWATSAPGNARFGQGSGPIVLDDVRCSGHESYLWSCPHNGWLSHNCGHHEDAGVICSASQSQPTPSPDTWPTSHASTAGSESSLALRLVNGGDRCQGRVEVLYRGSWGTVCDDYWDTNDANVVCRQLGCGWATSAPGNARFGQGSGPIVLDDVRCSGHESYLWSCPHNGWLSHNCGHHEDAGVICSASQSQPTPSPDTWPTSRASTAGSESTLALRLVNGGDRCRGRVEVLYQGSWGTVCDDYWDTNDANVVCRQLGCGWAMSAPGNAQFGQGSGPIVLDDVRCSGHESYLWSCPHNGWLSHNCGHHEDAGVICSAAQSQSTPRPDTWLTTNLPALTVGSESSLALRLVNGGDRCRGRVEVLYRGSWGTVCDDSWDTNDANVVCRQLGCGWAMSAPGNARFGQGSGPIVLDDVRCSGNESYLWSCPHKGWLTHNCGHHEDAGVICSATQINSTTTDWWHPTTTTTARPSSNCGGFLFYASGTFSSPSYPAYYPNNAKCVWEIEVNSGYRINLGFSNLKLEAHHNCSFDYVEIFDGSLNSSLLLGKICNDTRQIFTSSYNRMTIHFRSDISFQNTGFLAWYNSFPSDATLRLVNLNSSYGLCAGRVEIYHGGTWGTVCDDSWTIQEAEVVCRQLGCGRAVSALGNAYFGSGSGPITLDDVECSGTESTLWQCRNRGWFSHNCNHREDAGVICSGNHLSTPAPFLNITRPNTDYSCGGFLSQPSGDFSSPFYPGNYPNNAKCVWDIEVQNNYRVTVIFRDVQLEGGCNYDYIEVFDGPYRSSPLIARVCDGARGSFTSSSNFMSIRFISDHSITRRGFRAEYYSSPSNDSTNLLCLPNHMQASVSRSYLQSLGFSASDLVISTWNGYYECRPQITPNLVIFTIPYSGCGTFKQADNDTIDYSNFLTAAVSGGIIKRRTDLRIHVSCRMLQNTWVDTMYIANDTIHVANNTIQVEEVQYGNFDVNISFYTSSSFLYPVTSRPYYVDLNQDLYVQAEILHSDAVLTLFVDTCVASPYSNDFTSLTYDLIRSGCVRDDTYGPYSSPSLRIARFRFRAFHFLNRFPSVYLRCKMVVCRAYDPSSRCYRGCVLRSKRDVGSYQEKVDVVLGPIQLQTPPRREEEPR

B1: catalytic domain of Streptococcus mutans (UA159) glucosyltransferase GtfB, residues 191-1051 (domain or fragment)
chain: LHFDETGAYTDTSIDTVNKDIVTTRSNLYKKYNQVYDRSAQSFEHVDHYLTAESWYRPKYILKDGKTWTQSTEKDFRPLLMTWWPSQETQRQYVNYMNAQLGINKTYDDTSNQLQLNIAAATIQAKIEAKITTLKNTDWLRQTISAFVKTQSAWNSDSEKPFDDHLQNGAVLYDNEGKLTPYANSNYRILNRTPTNQTGKKDPRYTADNTIGGYEFLLANDVDNSNPVVQAEQLNWLHFLMNFGNIYANDPDANFDSIRVDAVDNVDADLLQIAGDYLKAAKGIHKNDKAANDHLSILEAWSDNDTPYLHDDGDNMINMDNKLRLSLLFSLAKPLNQRSGMNPLITNSLVNRTDDNAETAAVPSYSFIRAHDSEVQDLIRDIIKAEINPNVVGYSFTMEEIKKAFEIYNKDLLATEKKYTHYNTALSYALLLTNKSSVPRVYYGDMFTDDGQYMAHKTINYEAIETLLKARIKYVSGGQAMRNQQVGNSEIITSVRYGKGALKATDTGDRTTRTSGVAVIEGNNPSLRLKASDRVVVNMGAAHKNQAYRPLLLTTDNGIKAYHSDQEAAGLVRYTNDRGELIFTAADIKGYANPQVSGYLGVWVPVGAAADQDVRVAASTAPSTDGKSVHQNAALDSRVMFEGFSNFQAFATKKEEYTNVVIAKNVDKFAEWGVTDFEMAPQYVSSTDGSFLDSVIQNGYAFTDRYDLGISKPNKYGTADDLVKAIKALHSKGIKVMADWVPDQMYAFPEKEVVTATRVDKFGKPVEGSQIKSVLYVADSKSSGKDQQAKYGGAFLEELQAKYPELFARKQISTGVPMDPSVKIKQWSAKYFNGTNILGRGAGYVLKDQATNTYFNISDNK
On to B1, for which the koff is 0.00152 s⁻¹ and the kon is 2990 M⁻¹ s⁻¹.

Usually koff stands for a measure of how fast the partners let go of each other. A word on the kon: it is the second-order rate constant of association.
